Source: patent publication US20230295308A1, “ANTAGONISTIC BIPARATOPIC ANTIBODIES THAT SPECIFICALLY BIND FIBROBLAST GROWTH FACTOR RECEPTOR 2 AND METHODS OF USING SAME” (The Broad Institute, Inc., priority 2020, published 2023)

Assays:
[1] = system: BaF3 cells overexpressing FGFR2-PHGDH; test: combination of BGJ398 and anti-FGFR2 bivalent antibody, isobolograms and Loewe scores (FIGS. 14, 15); format: cell-based; details: presence of FGF10, treated for 5 days
Source text: FIGS. 14B-14D provide isobolograms showing synergy between FGFR inhibitor and the anti-[…] bivalent antibody on the different days and supporting the results shown in FIG. 14A. FIG. 14B corresponds to 3 days after treatment with the BGJ398 inhibitor; FIG. 14C corresponds to 4 days after treatment with the BGJ398 inhibitor; and FIG. 14D corresponds to 5 days after treatment with the BGJ398 inhibitor. FIG. 14E provide Loewe scores showing synergy between the FGFR inhibitor and the anti-FGF2 bivalent antibody on the different days and supporting the results shown in FIG. 14A.
FIG. 15A presents charts showing synergy between the FGFR2 small molecule inhibitor BGJ398 and an anti-FGFR2 bivalent antibody (Antibody D) in the presence of FGF ligand (+FGF) in a cell-based assay using BaF3 cells overexpressing an FGFR2 fusion molecule (FGFR2-PHGDH) after 3, 4 and 5 days of treatment with the inhibitor and the antibody. […] FIGS. 15B-15D provide isobolograms showing synergy between the FGFR inhibitor and the anti-FGF2 bivalent antibody on the different days and supporting the results shown in FIG. 15A. FIG. 15B corresponds to 3 days after treatment with the BGJ398 inhibitor; FIG. 15C corresponds to 4 days after treatment with the BGJ398 inhibitor; and FIG. 15D corresponds to 5 days after treatment with the BGJ398 inhibitor. […]

[2] = target: T1, FGFR2 receptor dimerization (Homo sapiens, UniProt P21802); test: NANOBIT assay of FGFR2 dimerization; format: cell-based; details: increasing antibody concentrations, cells stably expressing FGFR2
T1 construct: expressed in transfected cells
T1 sequence (P21802 22-822 isoform P21802-3 limits assumed): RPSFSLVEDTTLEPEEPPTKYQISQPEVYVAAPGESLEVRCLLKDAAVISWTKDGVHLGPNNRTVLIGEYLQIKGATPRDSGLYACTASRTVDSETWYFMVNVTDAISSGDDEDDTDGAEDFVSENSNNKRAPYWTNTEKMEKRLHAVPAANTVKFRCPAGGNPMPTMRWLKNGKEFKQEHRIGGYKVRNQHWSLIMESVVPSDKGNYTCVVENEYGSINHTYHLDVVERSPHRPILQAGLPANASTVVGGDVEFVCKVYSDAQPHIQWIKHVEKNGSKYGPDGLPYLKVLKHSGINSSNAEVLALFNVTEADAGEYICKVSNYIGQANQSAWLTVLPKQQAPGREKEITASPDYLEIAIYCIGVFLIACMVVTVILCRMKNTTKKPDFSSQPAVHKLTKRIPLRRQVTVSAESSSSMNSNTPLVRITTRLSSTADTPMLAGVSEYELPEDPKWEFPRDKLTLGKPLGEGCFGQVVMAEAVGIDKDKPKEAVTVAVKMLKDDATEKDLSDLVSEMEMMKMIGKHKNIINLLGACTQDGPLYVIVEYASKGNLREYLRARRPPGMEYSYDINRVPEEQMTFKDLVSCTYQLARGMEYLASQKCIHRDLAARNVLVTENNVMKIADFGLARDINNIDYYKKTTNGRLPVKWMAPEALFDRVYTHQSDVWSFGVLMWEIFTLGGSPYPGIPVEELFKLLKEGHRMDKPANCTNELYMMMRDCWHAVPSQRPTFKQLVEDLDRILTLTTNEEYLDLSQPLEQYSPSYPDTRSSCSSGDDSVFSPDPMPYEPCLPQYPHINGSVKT
T1 sequence (P21802 22-822 isoform P21802-3 limits assumed): as above
Source text: FIG. 16A-16F provide schematic illustrations, blots and graphs related to the development of a NANOBIT® assay to measure FGFR2 dimerization. Such an assay is used to screen biparatopic screening for their ability to disrupt FGFR2 dimerization. […] The protein interactions bring the subunits into close proximity to form a functional enzyme that generates a bright, luminescent signal. (FIG. 16B). […] FIG. 16E presents a graph of the results of the NANOBIT® assay using NANOBIT® constructs with or without FGF10 ligand. […] As shown in the graph on the left side of FIG. 16F, certain of the antibodies A-F inhibited the growth of BaF3 cells stably overexpressing FGFR2 (FGFR2IIIb). Antibody D was used in the NANOBIT® assay (graph on the right of FIG. 16F). In the rightmost graph in FIG. 16F, the fold luminescence resulting from FGFR2 WT (wild type) in the assay is represented by the left bar in each set of three bars; the fold luminescence resulting from FGFR2+FGF10 ligand in the assay is represented by the middle bar in each set of three bars; and the fold luminescence resulting from +/−FGF10 ligand difference in the assay is represented by the right bar in each set of three bars shown in FIG. 16F.
A NANOBIT® assay was developed to measure FGFR2 dimerization in cells, and in particular to screen for biparatopic antibodies that were able to disrupt FGFR2 dimerization. […]

[3] = target: FGFR2 on SNU-16 gastric cancer cell line with FGFR2 amplification (UniProt P21802); test: FACS on SNU-16 cells, % cells with FITC+ [cont.]
FGFR2IIIb = target: T2, FGFR2IIIb; test: row 'Kd (nM) (patent)', value quoted from the source patent; method: Radioimmunoassay-purified FGFR2IIIb
T2 construct: also called purified FGFR2IIIb
T2 chain: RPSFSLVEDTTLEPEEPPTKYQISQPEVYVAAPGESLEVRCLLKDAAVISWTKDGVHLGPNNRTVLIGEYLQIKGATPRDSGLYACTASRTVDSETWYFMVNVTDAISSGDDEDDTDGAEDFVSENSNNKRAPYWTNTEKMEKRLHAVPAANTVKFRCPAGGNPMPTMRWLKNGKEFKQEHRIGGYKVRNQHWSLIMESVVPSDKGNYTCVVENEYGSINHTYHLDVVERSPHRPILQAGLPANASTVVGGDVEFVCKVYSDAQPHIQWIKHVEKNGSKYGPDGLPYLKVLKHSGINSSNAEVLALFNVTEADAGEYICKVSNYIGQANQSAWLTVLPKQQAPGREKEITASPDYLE

blocking of FGF-induced dimerization of the FGFR2 receptor [2]: blocks
EC50 (read off the curve) [3]: 0.3 µg/mL
Kd (FGFR2IIIb): 3 nM
B1: 2B 1.3.12 (antibody, V domains shown)
VH: EVQLVESGGGLVQPGGSLRLSCAASGFPFTSTGISWVRQAPGKGLEWVGRTHLGDGSTNYADSVKGRFTISADTSKNTAYLQMNSLRAEDTAVYYCARTYGIYDTYDMYTEYVMDYWGQGTLVTVSS
VL: DIQMTQSPSSLSASVGDRVTITCRASQDVDTSLAWYKQKPGKAPKLLIYSASFLYSGVPSRFSGSGSGTDFTLTISSLQPEDFATYYCQQSTGHPQTFGQGTKVEIK
notes: the duobody scheme implies IgG1 with K409R or F405L; also called Antibody D; GE
synergy with BGJ398 in inhibiting FGFR2-PHGDH driven BaF3 cell growth [1]: synergizes
